From the Immune Epitope Database (IEDB) come the findings set out here.

The target of test [1] is HLA-A*24:03. Put plainly: IEDB peptide-MHC binding, purified MHC/competitive/fluorescence; filed as Kd, often an IC50 or EC50 that approximates it; ≥ and ≤ were set here for values at or beyond the usual limits of such assays.
For test [2], the target named is HLA-A*02:01. Described as above.
Test [3] deals with HLA-A*02:11. Described as above.
Test [4] addresses HLA-A*02:19. Described as above.
For test [5], the target named is HLA-A*03:01. The test is described as above.
The target in test [6] is HLA-A*26:01. The test is described as above.
Test [7] deals with HLA-A*29:02. The test is described as above.
The target of test [8] is HLA-B*18:01. The description is as above. The note with it: source organism: Vibrio parahaemolyticus K5030.
Test [9] concerns the target HLA-B*27:03. Described as above.
Test [10] addresses HLA-B*46:01. The description is as above.
The target in test [11] is HLA-B*51:01. Described as above. The note with it: source organism: Vibrio parahaemolyticus K5030.
Test [12] addresses HLA-B*57:01. Described as above.
Test [13] deals with HLA-A*01:01. The test is described as above.
For test [14], the target named is HLA-A*02:03. The description is as above. The note with it: source organism: Cryptosporidium parvum Iowa II.
Test [15] concerns the target HLA-B*15:01. The test is described as above. The conditions noted are these: source organism: Cryptosporidium parvum Iowa II.
In test [16] the target is HLA-B*15:17. The test is described as above. The note with it: source organism: Cryptosporidium parvum Iowa II.
The target of test [17] is HLA-A*11:01. Put plainly: IEDB peptide-MHC binding, purified MHC/direct/fluorescence; filed as Kd, often an IC50 or EC50 that approximates it; ≥ and ≤ were set here for values at or beyond the usual limits of such assays.
Test [18] has as its target HLA-A*31:01. Put plainly: IEDB peptide-MHC binding, purified MHC/competitive/fluorescence; filed as Kd, often an IC50 or EC50 that approximates it; ≥ and ≤ were set here for values at or beyond the usual limits of such assays. The note with it: source organism: Dengue virus 3 Philippines/H87/1956.
Test [19] concerns the target HLA-B*15:42. The test is described as above. The conditions noted are these: source organism: Dengue virus 3 Philippines/H87/1956.
Test [20] concerns the target HLA-B*45:06. Described as above. The note with it: source organism: Dengue virus 3 Philippines/H87/1956.
For test [21], the target named is HLA-B*83:01. Described as above. The conditions noted are these: source organism: Dengue virus 3 Philippines/H87/1956.
Test [22] deals with HLA-A*68:01. Put plainly: IEDB peptide-MHC binding, purified MHC/competitive/radioactivity; filed as Kd, often an IC50 or EC50 that approximates it; ≥ and ≤ were set here for values at or beyond the usual limits of such assays. The note with it: source organism: Dengue virus 3 Martinique/1243/1999.
Test [23] has as its target HLA-A*01:01. Put plainly: IEDB peptide-MHC binding, purified MHC/direct/fluorescence; filed as Kd, often an IC50 or EC50 that approximates it; ≥ and ≤ were set here for values at or beyond the usual limits of such assays. The note with it: source organism: Influenza A virus (A/Viet Nam/HN/2004(H5N1)).
In test [24] the target is HLA-A*02:01. The test is described as above. The conditions noted are these: source organism: Influenza A virus (A/Viet Nam/HN/2004(H5N1)).
In test [25] the target is HLA-A*03:01. Described as above. The conditions noted are these: source organism: Influenza A virus (A/Viet Nam/HN/2004(H5N1)).
Test [26] deals with HLA-A*24:02. The description is as above. The conditions noted are these: source organism: Influenza A virus (A/Viet Nam/HN/2004(H5N1)).
The target of test [27] is HLA-A*31:01. The test is described as above. The note with it: source organism: Influenza A virus (A/Viet Nam/HN/2004(H5N1)).
Test [28] deals with HLA-A*69:01. Described as above. The note with it: source organism: Influenza A virus (A/Viet Nam/HN/2004(H5N1)).
The target of test [29] is HLA-B*07:02. The description is as above. The conditions noted are these: source organism: Influenza A virus (A/Viet Nam/HN/2004(H5N1)).
The target of test [30] is HLA-B*08:01. The test is described as above. The note with it: source organism: Influenza A virus (A/Viet Nam/HN/2004(H5N1)).
Test [31] deals with HLA-B*08:02. The test is described as above. The conditions noted are these: source organism: Influenza A virus(A/swine/Shandong/fNY/2003(H9N2)).
For test [32], the target named is HLA-B*15:01. Described as above. The conditions noted are these: source organism: Influenza A virus (A/Viet Nam/HN/2004(H5N1)).
Test [33] concerns the target HLA-B*27:05. The test is described as above. The conditions noted are these: source organism: Influenza A virus (A/Viet Nam/HN/2004(H5N1)).
The target in test [34] is HLA-B*39:01. The description is as above. The conditions noted are these: source organism: Influenza A virus (A/Viet Nam/HN/2004(H5N1)).
Test [35] has as its target HLA-B*40:01. The description is as above. The note with it: source organism: Influenza A virus (A/Viet Nam/HN/2004(H5N1)).
Test [36] concerns the target HLA-B*46:01. The description is as above. The conditions noted are these: source organism: Influenza A virus (A/Viet Nam/HN/2004(H5N1)).
Test [37] concerns the target HLA-B*58:01. Described as above. The conditions noted are these: source organism: Influenza A virus (A/Viet Nam/HN/2004(H5N1)).
Setting [38] is: source organism: Vibrio parahaemolyticus K5030.
The mark [39] stands for this setting: source organism: Cryptosporidium parvum Iowa II.
The mark [40] stands for this setting: source organism: Encephalitozoon cuniculi GB-M1.

Broadly, the Kd is the constant that tells how readily two partners part at equilibrium. In test [1] (source organism: Bacillus cereus G9241), AYYKPYVQL gave a Kd of 0.0009 µM.
In turn, GYDFEREGY displayed a Kd in test [1] (source organism: Influenza A virus (A/swine/Italy/1509-6/97(H1N1))) of 0.0358 µM.
For the sequence LQNFCQHLV, the Kd in test [2] (setting [38]) is 0.0024 µM; in test [3] (setting [38]), 0.0006 µM; in [4] (setting [38]), 0.0251 µM; in [5] (setting [38]), at least 20 µM; in test [1] (setting [38]), at least 20 µM; in test [6] (setting [38]) it was at least 20 µM. For the same sequence, the Kd was 0.0196 µM in test [7] (setting [38]); at least 20 µM in test [8]; at least 20 µM in [9] (setting [38]); at least 20 µM in [10] (setting [38]); at least 20 µM in test [11]; at least 20 µM in [12] (setting [38]).
MVKMGGLGY: the figures for the Kd in [13] (source organism: Rotavirus G3) and in test [7] (source organism: Rotavirus G3) were at least 20 µM and 0.0286 µM, respectively.
For the sequence SGLPGIFIV, the Kd in test [2] (setting [39]) was at least 20 µM; in test [14] it was at least 20 µM; in test [3] (setting [39]), 5.45 µM; in test [4] (setting [39]), at least 20 µM; in [5] (setting [39]) it was at least 20 µM; in [6] (setting [39]), at least 20 µM. Moreover, the Kd in test [15], in test [16], in [9] (setting [39]), in test [10] (setting [39]) and in test [12] (setting [39]) was at least 20 µM in each case.
SMIFSVLDA: the Kd amounted to 0.0014 µM in [2] (setting [40]) and 0.129 µM in [3] (setting [40]).
Turning to TVMDIISRK, the Kd was 0.0017 µM in [17] (source organism: dengue virus type 2); at least 50 µM in test [18]; at least 5 µM in test [19]; at least 5 µM in [20]; at least 5 µM in test [21]; 0.0105 µM in test [22].
VHFRNQVKI: the Kd in [23], in test [24], in test [25], in test [17] (source organism: Influenza A virus (A/Viet Nam/HN/2004(H5N1))), in test [26] and in test [27] was at least 20 µM in each case. In addition, the Kd in test [28], in test [29], in test [30], in test [31], in [32] and in [33] was at least 20 µM each time. In addition, the dissociation constant Kd in test [34] is 1.56 µM; in test [35] it was at least 20 µM; in test [36] it was at least 20 µM; in test [37], at least 20 µM.
Consider VSMDQLASY, for which the Kd in test [13] (source organism: Homo sapiens) was found to be 0.164 µM; in test [10] (source organism: Homo sapiens), 0.0314 µM.
